Test results taken from patent publication US12576141B2 (AlbuNext, LLC, priority 2023, dated 2026).

What was measured:
[1] = molecular target: GLP-1 receptor (Homo sapiens, UniProt P43220); settings: cited from earlier work
[2] = monotherapy, cited from earlier work
[3] = suitable for once weekly dosing; cited from earlier work
[4] = molecular target: T1, Cys34 of rat albumin (Rattus norvegicus, UniProt P02770); experiment: electrophoresis of plasma samples from injected rats (translocation to rat albumin); assay type: in vivo
T1 construct: plasma samples collected from the rats that were injected s.c. and i.v; from tissue; host or cells: rat plasma (in vivo, circulating albumin)
T1 sequence (P02770 25-608): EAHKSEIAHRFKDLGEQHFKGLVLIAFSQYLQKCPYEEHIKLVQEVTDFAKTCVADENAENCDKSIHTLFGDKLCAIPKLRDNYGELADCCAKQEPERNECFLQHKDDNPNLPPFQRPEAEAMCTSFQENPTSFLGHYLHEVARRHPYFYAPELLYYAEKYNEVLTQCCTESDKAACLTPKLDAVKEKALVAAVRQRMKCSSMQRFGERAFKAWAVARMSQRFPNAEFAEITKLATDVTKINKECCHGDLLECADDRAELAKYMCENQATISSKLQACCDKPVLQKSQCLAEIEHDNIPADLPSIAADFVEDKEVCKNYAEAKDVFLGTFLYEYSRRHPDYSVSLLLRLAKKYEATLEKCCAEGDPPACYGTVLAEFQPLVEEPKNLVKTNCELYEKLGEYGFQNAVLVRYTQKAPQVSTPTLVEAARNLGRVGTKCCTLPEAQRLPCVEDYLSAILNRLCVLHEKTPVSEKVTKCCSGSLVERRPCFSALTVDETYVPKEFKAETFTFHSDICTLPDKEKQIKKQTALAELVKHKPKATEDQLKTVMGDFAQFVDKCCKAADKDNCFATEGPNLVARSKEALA
Experimental: To further investigate the apparent inconsistencies supplementary electrophoresis experiments were conducted on the plasma samples collected from the rats that were injected s.c. and i.v. as noted above, and exemplary results are depicted in FIG. 30. As can be readily seen in the gel image, when conformationally unmodified AB-013 is tested in an electrophoresis experiment only one band is observed in the area where an albumin-exendin-4 MPA covalent construct would be observed. Completely unexpectedly, all time points taken during the experiment, including the earliest ones, had two bands in the area related to an albumin-exendin-4 MPA covalent construct.
This initial observation was further supported when a dynorphin-A-MPA peptide was injected intravenously to rats. Importantly, this dynorphin-A-MPA peptide was not conjugated to human albumin or any other type of albumin. […] In a similar fashion, the dynorphin-A-MPA peptide was also conjugated to human conformationally unmodified albumin in vitro to form a covalent bond between it and the Cys34 of human albumin. The dynorphin a human albumin covalent construct was injected intravenously to rats.

Sequence of GLP-1 receptor (P43220 24-463, species assumed): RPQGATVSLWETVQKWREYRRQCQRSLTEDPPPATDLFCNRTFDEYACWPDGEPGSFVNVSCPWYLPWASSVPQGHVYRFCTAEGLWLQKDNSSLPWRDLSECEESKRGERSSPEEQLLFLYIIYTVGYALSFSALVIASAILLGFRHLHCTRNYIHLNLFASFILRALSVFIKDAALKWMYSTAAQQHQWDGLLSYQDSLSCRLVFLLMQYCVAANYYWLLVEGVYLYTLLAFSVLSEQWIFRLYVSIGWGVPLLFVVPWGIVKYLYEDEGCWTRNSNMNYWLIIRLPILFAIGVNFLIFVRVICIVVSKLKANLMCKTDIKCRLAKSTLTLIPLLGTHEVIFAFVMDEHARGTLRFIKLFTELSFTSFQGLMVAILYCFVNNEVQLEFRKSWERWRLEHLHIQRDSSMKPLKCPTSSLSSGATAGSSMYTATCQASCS

Substance	GLP-1 receptor affinity [1]	decrease in HbA1c from baseline ([2]; 30 mg weekly dose, week 52)	change from baseline of HbA1c ([2]; 50 mg weekly dose)	half-life [3]	bands on electrophoresis gel in the area of the albumin covalent construct ([4]; rat plasma, all time points)	bioconjugation in vivo with rat albumin ([4]; rats, intravenous, peptide not conjugated to albumin)
albiglutide: albumin fusion protein in which a tandem repeat of Gly8 GLP-1 is fused to N-terminus of human serum albumin	20 nM	−0.7%	−0.9%	140 to 190 h		
dynorphin-A-MPA peptide: dynorphin-A-MPA peptide not conjugated to any albumin, injected for in vivo bioconjugation					only one band	did indeed occur
